Changes are numbered by the printed parent chain. Blank lines part the entries; values can stand above or below the molecule they belong to.
Key:
[1] = target: T1, recombinant human interleukin-5 (human, UniProt P05113 20-134); assay: inhibition of binding of 0.5 nM radiolabeled human IL-5 to IL-5 receptor alpha chains on transfected COS cells
T1 sequence (looked up): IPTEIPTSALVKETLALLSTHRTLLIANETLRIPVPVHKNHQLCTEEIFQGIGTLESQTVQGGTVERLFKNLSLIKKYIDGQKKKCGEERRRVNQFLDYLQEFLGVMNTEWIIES

[2] = target: T1, recombinant human interleukin-5; assay: cell-based or functional assay
[3] = target: T1, recombinant human interleukin-5; assay: competition ELISA on plates coated with human IL-5; competitor biotinylated JES1-39D10
Procedure: Competition assays were carried out in which binding of the biotinylated antibody to plates coated with human IL-5 was measured in the presence of unlabelled antibody JES1-39D10 or antibody CMx5-1, CMX5-2 or CMX5-5, each of which had been purified by protein A/G affinity chromatography.
EIA plates were treated with 0.1 M NaHCO_3, pH 9.2, for 1 hour at room temperature. Human IL-5 in TBS was then added at […]. The plates were incubated overnight at 4° C. and then blocked with 3% BSA-TBS ml for 1 hour at room temperature. Fifty microliters of 2-fold serially diluted competing antibodies plus the appropriate amount of biotinylated antibody JES1-39D10 (also in a 50 μl volume) were added to each well, and the plates were incubated for 1 hour at room temperature.
The plates were then washed 5 times with TBS-Tween-20, incubated with 1 μg/ml horseradish peroxidase (HRP)-streptavidin conjugate for 1 hour at room temperature, washed 5 times with TBS-Tween-20, and developed with HRP substrate TMB. Absorbance of the samples was then measured spectrophotometrically at 450 nm.

[4] = target: T1, recombinant human interleukin-5; assay: captured antibody on plate, 125I-IL-5 binding, Scatchard analysis
Procedure: To determine whether the humanized antibodies retained the ability to specifically bind to human IL-5, apparent dissociation constants of antibody/antigen complexes were measured. This was done by coating enzyme immunoassay plates with mouse anti-human IgG_4-Fc (5 µg per ml, 100 ill per well) in 50 mM bicarbonate buffer, pH 9.5. The plates were then blocked at room temperature for 90 minutes with BLOTTO, washed 3 times, and incubated at 37° C. for 2 hours with one of the humanized antibodies, either purified (100 µl per well with a final concentration of 0.05 µg per ml) or in the form of conditioned medium (100 µl per well).
After the plates were washed 3 times, a dilution series of ^125I-labeled human IL-5 at concentrations between 4,000 pM and 2 pM was applied to the wells in each plate in final volumes of 100 µl. All test wells were run in triplicate. Background binding was determined by using a 1000-fold molar excess of unlablled human IL-5 in control wells. The reactions were allowed to equilibrate at room temperature for 2 hours, at which time the wells were aspirated and washed 5 times with TBST. The wells were then separated and counted in a Pharmacia LKB γ-counter. All nonspecific binding controls were run in duplicate. The values obtained for bound human IL-5 were subjected to Scatchard analysis (using RADLIG software) to obtain dissociation constant (kd) values.

IC50 [1]: 0.15 to 0.55 nM
IC50 (pM), inhibition of IL-5-induced CD11b expression on HL-60 cells [2]: 166 pM
IC50 CMX5/IC50 39D10, inhibition of IL-5-induced CD11b expression on HL-60 cells (fold against 39D10) [2]: 1
MOLAR RATIO CMX5/IL-5, inhibition of IL-5-induced CD11b expression on HL-60 cells (molar ratio antibody:IL-5) [2]: 0.83
molar ratio to biotinylated JES1-39D10 needed to produce the same degree of binding inhibition [3]: 1 molar ratio
Molecule: monoclonal antibody JES1-39D10

IC50 [1]: 0.5 to 1.1 nM
IC50 (pM), inhibition of IL-5-induced CD11b expression on HL-60 cells [2]: 800 pM
IC50 CMX5/IC50 39D10, inhibition of IL-5-induced CD11b expression on HL-60 cells [2]: 4.8 fold against 39D10
MOLAR RATIO CMX5/IL-5, inhibition of IL-5-induced CD11b expression on HL-60 cells [2]: 4 molar ratio antibody:IL-5
molar ratio to biotinylated JES1-39D10 needed to produce the same degree of binding inhibition [3]: ~1.4 molar ratio
B3: humanized antibody CMX5-5 (antibody, V domains shown)
VH: QVKLVQAGGGVVQPGRSLRLSCIASGFTFSSNSVNWVRQAPGKGLEWVALIWSNGDTDYNSAIKSRFTISRDNSKRTLYMQMNSLRTEDTAVYYCAREYYGYFDYWGQGVLVTVSS
VL: DIQMTQSPSSLSVSVGDRVTITCLASEGISSYLAWYQQKPGLAPKLLIYGANSLQTGVPSRFSGSGSGTDFTFTISSLQPEDIATYYCQQSYKFPNTFGQGTKVDVKR
notes: Kabat CDRs only on HIL VH and LAY VL

binding result [4]: no binding
B5: humanized antibody CMX5-4 (antibody, V domains shown)
VH: QVKLVQAGGGVVQPGRSLRLSCIASGLSLTSNGMHWVRQAPGKGLEWVAVIWSNGSRTYYGDSVKGRFTISRDNSKRTLYMQMNSLRTEDTAVYYCAREYYGYFDYWGQGVLVTVSS
VL: B3 VL with L24Q, A34N, S53T, L54R, Q55E, T56A, F73L
notes: VH HIL minimal, VL LAY minimal

The remaining lines, values behind:

B1: humanized antibody CMX5-2 (antibody, V domains shown)
VH: B3 VH with V37I, R76S, Y94F
VL: B3 VL with G68A, F73L
IC50 [1]: 0.35 to 0.7 nM
IC50 (pM), inhibition of IL-5-induced CD11b expression on HL-60 cells [2]: 467 pM
IC50 CMX5/IC50 39D10, inhibition of IL-5-induced CD11b expression on HL-60 cells [2]: 2.8 fold against 39D10
MOLAR RATIO CMX5/IL-5, inhibition of IL-5-induced CD11b expression on HL-60 cells [2]: 2.3 molar ratio antibody:IL-5
molar ratio to biotinylated JES1-39D10 needed to produce the same degree of binding inhibition [3]: ~1.4 molar ratio

B2: humanized antibody CMX5-1 (antibody, V domains shown)
VH: B3 VH with A24V, F27L, T28S, F29L, S30T, V37I, R76S, Y94F
VL: B3 VL with K45L, G68A, F73L
notes: VH HIL maximal, VL LAY maximal; also called CMX1; antibody from clone CJA25
IC50 [1]: 1.5 to 3 nM
IC50 (pM), inhibition of IL-5-induced CD11b expression on HL-60 cells [2]: 1470 pM
IC50 CMX5/IC50 39D10, inhibition of IL-5-induced CD11b expression on HL-60 cells [2]: 8.8 fold against 39D10
MOLAR RATIO CMX5/IL-5, inhibition of IL-5-induced CD11b expression on HL-60 cells [2]: 7.3 molar ratio antibody:IL-5
molar ratio to biotinylated JES1-39D10 needed to produce the same degree of binding inhibition [3]: ~3.3 molar ratio

B4: humanized antibody CMX5-3 (antibody, V domains shown)
VH: EVQLLESGGGLVQPGGSLRLSCAVSGLSLTSNSVNWIRQAPGKGLEWVALIWSNGDTDYNSAIKSRFTISRNDSKNTLYLQMNGLQAEVSAIYFCAREYYGYFDYWGQGTLVTVSS
VL: B3 VL with G68A, F73L
notes: VH LAY maximal, VL LAY maximal
binding result [4]: binds
